These results are taken from patent US20240059797A1 (GRITSTONE BIO, published 2024).

Assay [1] addresses T1, HLA-A*01:01_… (HLA-PEPTIDE target G2), recombinant biotinylated complex (human, enzymatically biotinylated (BirA)).
T1 construct: also called G2-pHLA
Description: BLI. Background: In BLI a coated tip is dipped into the sample, and binding shifts an interference pattern.

Assay [2] has as its target T2, HLA-A*01:01_… (G2) presented on cells (human).
T2 construct: whole, on cells; K562 transduced with HLA-A*01:01 and pulsed with peptide, or A375 transduced with a 10x peptide cassette; also called G2 on K562 or A375 cells
The assay can be described thus: flow cytometry, peptide-pulsed K562 cells. (In general: Flow cytometry measures light scatter and fluorescence of single cells or particles in a stream.)
Description: Cells were harvested, washed in PBS, and stained with eBioscience Fixable Viability Dye eFluor 450 for 15 minutes at room temperature. Following another wash in PBS+2% FBS, cells were resuspended with bispecifics at varying concentrations. Cells were incubated with bispecifics for 1 hour at 4° C. […] After incubating at 4° C. for 45 minutes and washing in PBS+2% FBS, cells were resuspended in PBS+2% FBS and analyzed by flow cytometry. […] All cell lines were stained and analyzed with bispecific binding using the same methods as the K562 cells.
Flow cytometric analysis was performed on the Attune NxT Flow Cytometer (ThermoFisher) using the Attune NxT Software. Data was analyzed using FlowJo.

Assay [3] deals with T1, HLA-A*01:01_… (HLA-PEPTIDE target G2), …. The assay can be described thus: BLI (Octet HTX), biotinylated pHLA on SAX sensor, 1:1 model.
Description: (§1) The affinity of wildtype and DSB mutants were analyzed on the ForteBio Octet HTX in 96-channel mode with biolayer interferometry (BLI) detection. […] The biosensors were then dipped in assay buffer for a baseline. […] The biosensors were finally dipped into wells containing assay buffer to measure the dissociation rate for another 50 seconds. Referencing was completed by having a biosensor with no immobilized ligand dipped into analyte. Kinetic data was processed with Octet™ software using a 1:1 kinetic model with errors within 10%, X² below 3, and R² above 0.9.
Assay [4] addresses T2, HLA-A*01:01_… (G2) presented on cells. The assay can be described thus: flow cytometry, A375 cells expressing the G2 peptide.
Description: Tumor cells engineered to express target peptide were harvested, washed in PBS, and stained with eBioscience Fixable Viability Dye eFluor 450 for 15 minutes at room temperature. Following another wash in PBS+1-2% FBS, cells were resuspended with the indicated molecules at varying concentrations and incubated for 1 hour at 4° C. After another wash, PE-conjugated goat anti-human IgG secondary antibody (Jackson ImmunoResearch) was added at 1:100 to 1:200 for 30 minutes at 4° C. After washing in PBS+1-2% FBS, cells were resuspended in PBS+1-2% FBS and analyzed by flow cytometry. Flow cytometric analysis was performed on the Attune NxT Flow Cytometer (ThermoFisher) using the Attune NxT Software. Data was analyzed using FlowJo.
Assay [5] has as its target T1, HLA-A*01:01_… (HLA-PEPTIDE target G2), …. The assay can be described thus: BLI (ForteBio Octet HTX), biotinylated G2-pHLA captured on streptavidin SAX biosensor, bispecific in solution, 1:2 Fit.
Assay [6] shares this target. The assay can be described thus: BLI (ForteBio Octet HTX), biotinylated G2-pHLA captured on streptavidin SAX biosensor, bispecific in solution, 1:1 kinetic model.
Description: as §1
Assay [7] shares this target. The assay can be described thus: BLI (ForteBio Octet HTX), biotinylated G2-pHLA captured on streptavidin SAX biosensor, bispecific in solution, 1:1 Fit.
Description: (§2) The biosensors were then dipped in assay buffer for a baseline. […] The biosensors were finally dipped into wells containing assay buffer to measure the dissociation rate for another 50 seconds. Referencing was completed by having a biosensor with no immobilized ligand dipped into analyte. Kinetic data was processed with Octet™ software using a 1:1 kinetic model with errors within 10%, X² below 3, and R² above 0.9.
The target in assay [8] is T3, HLA-B*35:01_… (G5) presented on cells (human).
T3 construct: whole, on cells; also called G5 on K562 or LN229 cells
Description: flow cytometry on LN229 cells engineered to express the G5 peptide (LN229-G5-9mer), PE anti-human IgG secondary.
Description: Cells were harvested, washed in PBS, and stained with eBioscience Fixable Viability Dye eFluor 450 for 15 minutes at room temperature. Following another wash in PBS+2% FBS, cells were resuspended with bispecifics at varying concentrations. Cells were incubated with bispecifics for 1 hour at 4° C. After another wash, PE-conjugated goat anti-human IgG secondary antibody (Jackson ImmunoResearch) was added at 1:100. After incubating at 4° C. for 45 minutes and washing in PBS+2% FBS, cells were resuspended in PBS+2% FBS and analyzed by flow cytometry. Flow cytometric analysis was performed on the Attune NxT Flow Cytometer (ThermoFisher) using the Attune NxT Software. Data was analyzed using FlowJo.

Assay [9] concerns the target T4, HLA-B*35:01_… (HLA-PEPTIDE target G5), recombinant biotinylated complex (human, enzymatically biotinylated (BirA)).
T4 construct: also called G5-pHLA
Description: BLI (ForteBio Octet HTX), biotinylated G5-pHLA captured on streptavidin SAX biosensor, bispecific in solution, 1:2 Fit.

In assay [10] the target is T4, HLA-B*35:01_… (HLA-PEPTIDE target G5), …. Description: BLI (ForteBio Octet HTX), biotinylated G5-pHLA captured on streptavidin SAX biosensor, bispecific in solution, 1:1 Fit.
Description: as §2

B1: 4-anti-CD3-G2(1H11) (bispecific antibody)
chain: not shown
heavy: QVQLVQSGAEVKKPGASVKVSCKASGYTFTNYYMHWVRQAPGQGLEWMGMINPSGGGTSYAQKFQGRVTMTRDTSTSTVYMELSSLRSEDTAVYYCARGNPWELRLDYWGQGTLVTVSSGGGGSGGGGSGGGGSGGGGSDIQMTQSPSSLSASVGDRVTITCQASQDISNYLNWYQQKPGKAPKLLIYAASSLQSGVPSRFSGSGSGTDFTLTISSLQPEDFATYYCQQYYSYPFTFGPGTKVDIKGGGGSGGGGSEVQLVESGGGLVQPGGSLRLSCAASGFTFSTYAMNWVRQAPGKGLEWVGRIRSKYNNYATYYADSVKGRFTISRDDSKNTLYLQMNSLRAEDTAVYYCVRHGNFGDSYVSWFAYWGQGTLVTVSSASTKGPSVFPLAPSSKSTSGGTAALGCLVKDYFPEPVTVSWNSGALTSGVHTFPAVLQSSGLYSLSSVVTVPSSSLGTQTYICNVNHKPSNTKVDKRVEPKSCDKTHTCPPCPAPELLGGPSVFLFPPKPKDTLMISRTPEVTCVVVDVSHEDPEVKFNWYVDGVEVHNAKTKPREEQYQSTYRVVSVLTVLHQDWLNGKEYKCKVSNKALPAPIEKTISKAKGQPREPQVCTLPPSREEMTKNQVSLSCAVKGFYPSDIAVEWESNGQPENNYKTTPPVLDSDGSFFLVSKLTVDKSRWQQGNVFSCSVMHEALHNRFTQKSLSLSPGK
light: QAVVTQEPSLTVSPGGTVTLTCGSSTGAVTTSNYANWVQQKPGKSPRGLIGGTNKRAPGVPARFSGSLLGGKAALTISGAQPEDEADYYCALWYSNHWVFGGGTKLTVLRTVAAPSVFIFPPSDEQLKSGTASVVCLLNNFYPREAKVQWKVDNALQSGNSQESVTEQDSKDSTYSLSSTLTLSKADYEKHKVYACEVTHQGLSSPVTKSFNRGEC
notes: also called 4-G2(1H11)-αCD3
Take B1: the binding result in [1] and in [2] was “binds” throughout.

B2: 4-hOKT3-G2(1H11) (bispecific antibody, human IgG1, kappa, N297Q)
chain: not shown
heavy: QVQLVQSGAEVKKPGASVKVSCKASGYTFTNYYMHWVRQAPGQGLEWMGMINPSGGGTSYAQKFQGRVTMTRDTSTSTVYMELSSLRSEDTAVYYCARGNPWELRLDYWGQGTLVTVSSGGGGSGGGGSGGGGSGGGGSDIQMTQSPSSLSASVGDRVTITCQASQDISNYLNWYQQKPGKAPKLLIYAASSLQSGVPSRFSGSGSGTDFTLTISSLQPEDFATYYCQQYYSYPFTFGPGTKVDIKGGGGSGGGGSQVQLVQSGAEVKKPGASVKVSCKASGYTFTRYTMHWVRQAPGQGLEWMGYINPSRGYTNYNQKFKDRVTLTTDKSSSTAYMELSSLRSEDTAVYYCARYYDDHYSLDYWGQGTLVTVSSASTKGPSVFPLAPSSKSTSGGTAALGCLVKDYFPEPVTVSWNSGALTSGVHTFPAVLQSSGLYSLSSVVTVPSSSLGTQTYICNVNHKPSNTKVDKRVEPKSCDKTHTCPPCPAPELLGGPSVFLFPPKPKDTLMISRTPEVTCVVVDVSHEDPEVKFNWYVDGVEVHNAKTKPREEQYQSTYRVVSVLTVLHQDWLNGKEYKCKVSNKALPAPIEKTISKAKGQPREPQVCTLPPSREEMTKNQVSLSCAVKGFYPSDIAVEWESNGQPENNYKTTPPVLDSDGSFFLVSKLTVDKSRWQQGNVFSCSVMHEALHNRFTQKSLSLSPGK
light: DIQMTQSPSSLSASVGDRVTITCSASSSVSYMNWYQQKPGKAPKRLIYDTSKLASGVPSRFSGSGSGTDFTLTISSLQPEDFATYYCQQWSSNPFTFGQGTKLEIKRTVAAPSVFIFPPSDEQLKSGTASVVCLLNNFYPREAKVQWKVDNALQSGNSQESVTEQDSKDSTYSLSSTLTLSKADYEKHKVYACEVTHQGLSSPVTKSFNRGEC
notes: format 4; its Fc may differ; also called 4-G2(1H11)-hOKT3; Format 4 G2(1H11) without the DSB
In the case of B2, the values for the Kd in assay [3], in [5] and in assay [7] were 18 nM, 1640 nM and 30.3 nM, respectively. Besides, the concentration giving a half-maximal response (EC50) in [4] was determined as 9.8 nM. In addition, the off-rate constant (koff) in assay [5] is 0.324 s⁻¹; in assay [6], 0.00397 s⁻¹; in [7], 0.0277 s⁻¹. Besides, the kon is 198000 M⁻¹ s⁻¹ in [5] and 913000 M⁻¹ s⁻¹ in assay [7].

B3: 4-G5(1C12)_10AAL hOKT3a (bispecific antibody)
chain: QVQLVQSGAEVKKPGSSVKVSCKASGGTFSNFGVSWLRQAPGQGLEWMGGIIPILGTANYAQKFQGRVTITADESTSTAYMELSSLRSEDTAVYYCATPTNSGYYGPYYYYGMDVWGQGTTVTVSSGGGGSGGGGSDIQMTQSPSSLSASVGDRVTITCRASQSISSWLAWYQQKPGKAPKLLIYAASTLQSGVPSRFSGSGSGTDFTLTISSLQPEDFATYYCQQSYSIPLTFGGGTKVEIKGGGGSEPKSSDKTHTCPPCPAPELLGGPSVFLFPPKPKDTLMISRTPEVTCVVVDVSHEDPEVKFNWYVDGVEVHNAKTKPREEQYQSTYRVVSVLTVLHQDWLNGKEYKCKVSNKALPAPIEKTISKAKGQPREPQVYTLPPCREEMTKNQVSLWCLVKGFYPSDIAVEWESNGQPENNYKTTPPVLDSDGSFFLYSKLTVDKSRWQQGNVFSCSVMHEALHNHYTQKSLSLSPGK
heavy: QVQLVQSGAEVKKPGSSVKVSCKASGGTFSNFGVSWLRQAPGQGLEWMGGIIPILGTANYAQKFQGRVTITADESTSTAYMELSSLRSEDTAVYYCATPTNSGYYGPYYYYGMDVWGQGTTVTVSSGGGGSGGGGSDIQMTQSPSSLSASVGDRVTITCRASQSISSWLAWYQQKPGKAPKLLIYAASTLQSGVPSRFSGSGSGTDFTLTISSLQPEDFATYYCQQSYSIPLTFGGGTKVEIKGGGGSGGGGSQVQLVQSGAEVKKPGASVKVSCKASGYTFTRYTMHWVRQAPGQGLEWMGYINPSRGYTNYNQKFKDRVTLTTDKSSSTAYMELSSLRSEDTAVYYCARYYDDHYSLDYWGQGTLVTVSSASTKGPSVFPLAPSSKSTSGGTAALGCLVKDYFPEPVTVSWNSGALTSGVHTFPAVLQSSGLYSLSSVVTVPSSSLGTQTYICNVNHKPSNTKVDKRVEPKSCDKTHTCPPCPAPELLGGPSVFLFPPKPKDTLMISRTPEVTCVVVDVSHEDPEVKFNWYVDGVEVHNAKTKPREEQYQSTYRVVSVLTVLHQDWLNGKEYKCKVSNKALPAPIEKTISKAKGQPREPQVCTLPPSREEMTKNQVSLSCAVKGFYPSDIAVEWESNGQPENNYKTTPPVLDSDGSFFLVSKLTVDKSRWQQGNVFSCSVMHEALHNRFTQKSLSLSPGK
light: DIQMTQSPSSLSASVGDRVTITCSASSSVSYMNWYQQKPGKAPKRLIYDTSKLASGVPSRFSGSGSGTDFTLTISSLQPEDFATYYCQQWSSNPFTFGQGTKLEIKRTVAAPSVFIFPPSDEQLKSGTASVVCLLNNFYPREAKVQWKVDNALQSGNSQESVTEQDSKDSTYSLSSTLTLSKADYEKHKVYACEVTHQGLSSPVTKSFNRGEC
notes: format 4 diabody; also called G5(1C12)-hOKT3a Format 4 with shortened linkers
As to B3, the “EC50 (read off the curve)” value in [8] was approximately 1 nM. Further, in assay [9], the Kd was determined as 16.1 nM, the koff was 0.00652 s⁻¹ and the kon was found to be 405000 M⁻¹ s⁻¹. In assay [10], the Kd came out at 2.2 nM, the koff turned out to be 0.00279 s⁻¹ and the kon was determined as 1.27e+06 M⁻¹ s⁻¹.

B4: 4-hOKT3-G2(1H11) with engineered H44/L100 disulfide bond (bispecific antibody, human IgG1, kappa, N297Q)
chain: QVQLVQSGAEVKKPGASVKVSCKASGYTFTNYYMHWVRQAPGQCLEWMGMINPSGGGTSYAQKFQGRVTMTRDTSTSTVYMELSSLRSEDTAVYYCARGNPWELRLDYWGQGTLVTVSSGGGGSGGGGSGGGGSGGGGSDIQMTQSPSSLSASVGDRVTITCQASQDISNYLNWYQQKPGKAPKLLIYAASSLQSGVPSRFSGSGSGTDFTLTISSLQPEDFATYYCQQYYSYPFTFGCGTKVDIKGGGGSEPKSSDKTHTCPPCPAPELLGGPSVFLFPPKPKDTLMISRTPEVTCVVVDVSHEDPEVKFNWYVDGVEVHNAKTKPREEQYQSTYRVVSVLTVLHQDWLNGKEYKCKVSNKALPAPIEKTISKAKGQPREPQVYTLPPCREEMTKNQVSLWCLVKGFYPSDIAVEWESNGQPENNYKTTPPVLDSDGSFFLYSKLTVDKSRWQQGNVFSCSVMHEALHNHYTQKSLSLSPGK
heavy: QVQLVQSGAEVKKPGASVKVSCKASGYTFTNYYMHWVRQAPGQCLEWMGMINPSGGGTSYAQKFQGRVTMTRDTSTSTVYMELSSLRSEDTAVYYCARGNPWELRLDYWGQGTLVTVSSGGGGSGGGGSGGGGSGGGGSDIQMTQSPSSLSASVGDRVTITCQASQDISNYLNWYQQKPGKAPKLLIYAASSLQSGVPSRFSGSGSGTDFTLTISSLQPEDFATYYCQQYYSYPFTFGCGTKVDIKGGGGSGGGGSQVQLVQSGAEVKKPGASVKVSCKASGYTFTRYTMHWVRQAPGQGLEWMGYINPSRGYTNYNQKFKDRVTLTTDKSSSTAYMELSSLRSEDTAVYYCARYYDDHYSLDYWGQGTLVTVSSASTKGPSVFPLAPSSKSTSGGTAALGCLVKDYFPEPVTVSWNSGALTSGVHTFPAVLQSSGLYSLSSVVTVPSSSLGTQTYICNVNHKPSNTKVDKRVEPKSCDKTHTCPPCPAPELLGGPSVFLFPPKPKDTLMISRTPEVTCVVVDVSHEDPEVKFNWYVDGVEVHNAKTKPREEQYQSTYRVVSVLTVLHQDWLNGKEYKCKVSNKALPAPIEKTISKAKGQPREPQVCTLPPSREEMTKNQVSLSCAVKGFYPSDIAVEWESNGQPENNYKTTPPVLDSDGSFFLVSKLTVDKSRWQQGNVFSCSVMHEALHNRFTQKSLSLSPGK
light: DIQMTQSPSSLSASVGDRVTITCSASSSVSYMNWYQQKPGKAPKRLIYDTSKLASGVPSRFSGSGSGTDFTLTISSLQPEDFATYYCQQWSSNPFTFGQGTKLEIKRTVAAPSVFIFPPSDEQLKSGTASVVCLLNNFYPREAKVQWKVDNALQSGNSQESVTEQDSKDSTYSLSSTLTLSKADYEKHKVYACEVTHQGLSSPVTKSFNRGEC
notes: also called G2(1H11)-hOKT3_DSBH44/L100 Format 4; G2 Format 4 with the DSB
As to B4, in assay [3], the Kd came out at 35.1 nM. In addition, in assay [4], a half-maximal effect (EC50) was put at 1750 nM. Moreover, the koff in assay [6] was determined as 0.025 s⁻¹.

By Kd is commonly meant the equilibrium constant for the complex coming apart. The EC50 is the concentration giving half of the maximal effect. Low readings indicate a more potent agent, high ones a less potent agent. One may read the koff as the rate constant with which the complex falls apart. A word on the kon: it is a measure of how fast the partners come together. One may read the EC50 (read off the curve) as the concentration giving half of the maximal effect.
